Assay results as given in paper PMC5679609 (PLoS ONE, 2017).

Biological target: T1, Tiam1 (human (endogenous in MCF-7), UniProt Q13009 1-1591)
T1 construct: also called Rac1-GEF; source: endogenous, MCF-7 lysate
Assay: co-IP; anti-Tiam1 antibody, lysates of nt MCF-7 and of the lines that stably express the SDC4 constructs; Mg2+-lysis buffer (25 mM HEPES pH 7.5, 150 mM NaCl, 1% Igepal CA-630, 5 mM MgCl2, 1 mM EDTA, 2% glycerol); blot with anti-GFP-HRP or anti-Rac1
Details: partners not purified

T1 sequence (Q13009 whole entry): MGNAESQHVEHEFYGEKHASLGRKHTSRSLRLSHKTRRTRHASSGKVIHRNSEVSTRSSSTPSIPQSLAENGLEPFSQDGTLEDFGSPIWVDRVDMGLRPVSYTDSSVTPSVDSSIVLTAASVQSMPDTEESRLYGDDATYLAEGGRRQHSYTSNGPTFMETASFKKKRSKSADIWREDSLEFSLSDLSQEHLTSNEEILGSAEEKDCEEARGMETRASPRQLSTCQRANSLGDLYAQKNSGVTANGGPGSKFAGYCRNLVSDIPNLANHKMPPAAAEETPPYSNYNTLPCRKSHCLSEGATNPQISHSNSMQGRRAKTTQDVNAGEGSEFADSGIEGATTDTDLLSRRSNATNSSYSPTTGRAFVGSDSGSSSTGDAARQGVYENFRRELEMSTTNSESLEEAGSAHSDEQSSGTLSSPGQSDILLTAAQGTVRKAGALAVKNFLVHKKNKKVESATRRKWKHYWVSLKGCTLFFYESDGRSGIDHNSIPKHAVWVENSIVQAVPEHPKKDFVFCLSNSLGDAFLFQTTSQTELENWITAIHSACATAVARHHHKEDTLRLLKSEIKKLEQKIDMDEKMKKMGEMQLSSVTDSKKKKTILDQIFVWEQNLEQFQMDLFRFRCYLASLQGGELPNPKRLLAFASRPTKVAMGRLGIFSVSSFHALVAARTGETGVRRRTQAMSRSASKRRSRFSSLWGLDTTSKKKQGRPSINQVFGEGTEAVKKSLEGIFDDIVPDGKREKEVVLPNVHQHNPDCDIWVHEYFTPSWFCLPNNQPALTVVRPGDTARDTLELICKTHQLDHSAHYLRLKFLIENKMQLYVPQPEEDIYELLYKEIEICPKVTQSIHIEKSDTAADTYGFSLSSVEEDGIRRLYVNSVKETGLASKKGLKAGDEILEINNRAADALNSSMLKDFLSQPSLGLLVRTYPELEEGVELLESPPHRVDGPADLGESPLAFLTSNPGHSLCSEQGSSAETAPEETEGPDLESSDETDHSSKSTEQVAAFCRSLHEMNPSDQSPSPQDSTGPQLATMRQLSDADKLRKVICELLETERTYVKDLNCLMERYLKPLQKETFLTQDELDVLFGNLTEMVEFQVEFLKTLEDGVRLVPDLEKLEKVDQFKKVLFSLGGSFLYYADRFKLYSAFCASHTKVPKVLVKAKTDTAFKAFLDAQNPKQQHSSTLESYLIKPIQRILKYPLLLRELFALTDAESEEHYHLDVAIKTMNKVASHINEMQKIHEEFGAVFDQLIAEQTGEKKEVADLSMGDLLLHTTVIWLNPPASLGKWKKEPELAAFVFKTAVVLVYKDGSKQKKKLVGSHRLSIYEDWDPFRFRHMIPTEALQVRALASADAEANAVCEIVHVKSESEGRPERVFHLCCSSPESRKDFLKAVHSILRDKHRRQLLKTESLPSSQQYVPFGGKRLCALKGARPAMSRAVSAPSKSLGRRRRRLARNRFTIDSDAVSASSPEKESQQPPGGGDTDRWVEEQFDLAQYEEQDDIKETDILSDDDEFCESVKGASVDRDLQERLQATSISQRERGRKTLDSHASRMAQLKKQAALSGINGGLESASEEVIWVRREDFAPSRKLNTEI

B1: Ser179Glu SDC4 (phosphomimetic), with GFP in the extracellular domain (natural protein, human, UniProt P31431 19-198, looked up)
chain: ESIRETEVIDPQDLLEGRYFSGALPDDEDVVGPGQESDDFELSGSGDLDDLEDSMIGPEVVHPLVPLDNHIPERAGSGSQVPTEPKKLEENEVIPKRISPVEESEDVSNKVSMSSTVQGSNIFERTEVLAALIVGGIVGILFAVFLILLLMYRMKKKDEGEYDLGKKPIYKKAPTNEFYA
notes: syndecan-4 (SDC4), human, GenBank CAG46871.1; GFP inserted into the extracellular domain at position 131; also called phosphomimetic SDC4; source: MCF-7, stably transfected, in lysate; not shown: GFP, internal (at position 131), kept
  fold binding against the non-phosphorylated SDC4: ~10 fold
